Data taken from the supplement of paper PMC12764529.
± gives the half width of the 95% confidence interval.

How the values were obtained:
[1] = folding stability dG unfold from chymotrypsin proteolysis; higher = more stable
How it was run: (§1)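 Unfolding free energy was derived, per protease or combined, against a sequence-predicted unfolded-state K50 and a shared folded-state K50, starting from K50 inferred by Bayesian fitting of sequencing counts. Digestion with trypsin and chymotrypsin was carried out on designed mini-proteins under 80 residues without cysteine in a PA-tagged cDNA display construct. Only designs with AlphaFold2 dimer inter-PAE above 15 were kept.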

[2] = folding stability dG unfold from trypsin proteolysis; higher = more stable
How it was run: as §1

[3] = folding stability dG unfold (combined trypsin and chymotrypsin); higher = more stable
How it was run: as §1

Row | Sequence | folding stability dG unfold [1] | folding stability dG unfold [2] | folding stability dG unfold [3]
1 | SAGGSAGGSAGGSKKTITLDIKVNGYLVKVKLNLETNKLEIVEVYKVSPEKKKLSPKDKSAGGSAGGSAGGS [r4_21_TrROS_Hall] | 2.33 ± 0.068 kcal/mol | 0.824 ± 0.029 kcal/mol | 1.93 ± 0.1 kcal/mol
2 | SAGGSAGGSAGGSKKTITVTVLFKDKNGKPVYIAKAKVTLNENGEETIEITEIYPLEDLSAGGSAGGSAGGS [r4_117_TrROS_Hall] | 2.36 ± 0.15 kcal/mol | 1.8 ± 0.12 kcal/mol | 2.34 ± 0.27 kcal/mol
3 | SAGGSAGGSAGGSKKTLTLPITITVTVTYTNEDGSTTETTYTYTLTINFEVSENDTGLLSAGGSAGGSAGGS [r10_1133_TrMRF] | 3.269 ± 0.013 kcal/mol | 2.23 ± 0.062 kcal/mol | 2.92 ± 0.071 kcal/mol
4 | SAGGSAGGSAGGSKLKIELNEDGTLRIVNEDTNEVYEIKLELPPPPPVETEVKYVSLEDLSAGGSAGGSAGG [r11_352_TrROS_Hall] | 0.842 ± 0.26 kcal/mol | 0.604 ± 0.18 kcal/mol | 0.47 ± 0.31 kcal/mol
5 | SAGGSAGGSAGGSKMYKIKIVNKKTKKVITVEVSEEDIEKALEAAKKAGVEKIEIEEVPSAGGSAGGSAGGS [r4_102_TrROS_Hall] | 1.7 ± 0.12 kcal/mol | 2.03 ± 0.17 kcal/mol | 1.82 ± 0.13 kcal/mol
6 | SAGGSAGGSAGGSKYIVIRIPGSVDELIDYLRDSGFKIKIESVEYDPPNGEFYVVFKIKSAGGSAGGSAGGS [r4_315_TrROS] | 3.063 ± 0.025 kcal/mol | 2.53 ± 0.073 kcal/mol | 2.87 ± 0.052 kcal/mol
7 | SAGGSAGGSAGGSKYVVIRVKKSVDELKDALKKAGFKVKIVSVYYDKENKEIYVVVKIESAGGSAGGSAGGS [r4_315_TrROS_Hall] | 4.45 ± 0.14 kcal/mol | 3.7 ± 0.15 kcal/mol | 4.16 ± 0.17 kcal/mol
8 | SAGGSAGGSAGGSLIVPAKDAVRFAEEWRRRFGGRFEIRGIPGIPFVPILVRPPDPAEFSAGGSAGGSAGGS [r4_419_TrMRF] | 0.703 ± 0.096 kcal/mol | -0.418 ± 0.38 kcal/mol | 0.491 ± 0.097 kcal/mol
9 | SAGGSAGGSAGGSLPFLKAKFTFTVRATVTVTVTDDDGKTTTEEFELETTVTVTLEPKPSAGGSAGGSAGGS [r4_162_TrROS_Hall] | 3.45 ± 0.07 kcal/mol | 2.88 ± 0.15 kcal/mol | 3.1 ± 0.2 kcal/mol
10 | SAGGSAGGSAGGSLSSNGSSLPPVPPAPVTDEPVEFPTPVLVTVSYYPLTGERRVEVLLSAGGSAGGSAGGS [r4_305_JUSTAS] | 0.272 ± 0.07 kcal/mol | -0.291 ± 0.038 kcal/mol | 0.178 ± 0.068 kcal/mol
11 | SAGGSAGGSAGGSMEFEVAEVFPDGWVVLRFPDGSRYRARLALDPETGEAKLLSLEPLPSAGGSAGGSAGGS [r4_247_TrMRF] | 4.41 ± 0.071 kcal/mol | 3.27 ± 0.077 kcal/mol | 4.15 ± 0.2 kcal/mol
12 | SAGGSAGGSAGGSMEITVETYPEVPLVRFTLPGGELVLLPVPPDVPEEEIRALAEALLASAGGSAGGSAGGS [r10_33_JUSTAS] | 0.833 ± 0.15 kcal/mol | 0.897 ± 0.025 kcal/mol | 0.874 ± 0.12 kcal/mol
13 | SAGGSAGGSAGGSMITLKIPPSKPEEAEKLAKSLGAELKSFDPNTGVVDINSPPGASLESAGGSAGGSAGGS [r4_3_JUSTAS] | -1.35 ± 0.74 kcal/mol | -1.25 ± 0.58 kcal/mol | -0.929 ± 0.23 kcal/mol
14 | SAGGSAGGSAGGSMIVITTEGEEVRNSLPSSYNILETKEDPSVPSYTYDIKKPGTGKEESAGGSAGGSAGGS [r4_435_JUSTAS] | -0.979 ± 0.71 kcal/mol | -1.55 ± 0.38 kcal/mol | < -1 kcal/mol
15 | SAGGSAGGSAGGSMIVLNVPREVAEKIKEELIKKGIDPEKVKVIYIEVPLPEEPPESILSAGGSAGGSAGGS [r10_602_JUSTAS] | 0.351 ± 0.099 kcal/mol | 0.798 ± 0.067 kcal/mol | 0.548 ± 0.16 kcal/mol
16 | SAGGSAGGSAGGSMKTVELSSEEEAKKIVEEAKKKGIPLTLVLTDPKTGNPKTFEFPLASAGGSAGGSAGGS [r4_188_JUSTAS] | -0.248 ± 0.41 kcal/mol | -0.213 ± 0.22 kcal/mol | 0.0568 ± 0.48 kcal/mol
17 | SAGGSAGGSAGGSMKVEKLPDGKLLVFDVDTKEWKEIDVEDAEVVLDEDNGRAIVRIKPSAGGSAGGSAGGS [r4_127_TrROS_Hall] | 1.76 ± 0.076 kcal/mol | -0.173 ± 0.16 kcal/mol | 0.902 ± 0.28 kcal/mol
18 | SAGGSAGGSAGGSMKVILDKKNNELYILLKDENGKLLLAKITLLPNGEIKIEVYDLKDLSAGGSAGGSAGGS [r4_434_TrROS_Hall] | 3.98 ± 0.1 kcal/mol | 2.27 ± 0.066 kcal/mol | 3.56 ± 0.13 kcal/mol

Row | Sequence | folding stability dG unfold [1] | folding stability dG unfold [2] | folding stability dG unfold [3]
19 | SAGGSAGGSAGGSMLVTEVSISPLPNGTVKVTTKLVLEPPDGVSVLEEESSVVSPEELSSAGGSAGGSAGGS [r4_389_JUSTAS] | 0.687 ± 0.041 kcal/mol | 0.11 ± 0.028 kcal/mol | 0.484 ± 0.099 kcal/mol
20 | SAGGSAGGSAGGSMPEGTVLSVDPSTGLKVVYFPGENKLVFEEISPSNELVKRSEFPLSSAGGSAGGSAGGS [r4_192_JUSTAS] | 0.436 ± 0.073 kcal/mol | -0.116 ± 0.14 kcal/mol | 0.15 ± 0.13 kcal/mol
21 | SAGGSAGGSAGGSMPIPYKIDSIEYYPPYPYYTLNVTGPENKPYTIIMSPENLENATIESAGGSAGGSAGGS [r4_51_TrMRF] | 0.607 ± 0.19 kcal/mol | 1.43 ± 0.12 kcal/mol | 1.05 ± 0.23 kcal/mol
22 | SAGGSAGGSAGGSMSTINFPSKEEIEAYLKKLGLKNVKLPWYPNNNVMDTSDIEKDILESAGGSAGGSAGGS [r4_101_JUSTAS] | 1.29 ± 0.03 kcal/mol | 0.996 ± 0.022 kcal/mol | 1.14 ± 0.058 kcal/mol
23 | SAGGSAGGSAGGSMSVVVTVKDPRTGSTTTVTVSPAEVEEAIEEAKKKGYSVVTVSEGGSAGGSAGGSAGGS [r4_102_JUSTAS] | 1.43 ± 0.024 kcal/mol | 1.84 ± 0.1 kcal/mol | 1.68 ± 0.085 kcal/mol
24 | SAGGSAGGSAGGSMTIIVKTEEEAKQLAERLKKELEELGLLENLKIEIKVIPEEDLPPESAGGSAGGSAGGS [r4_472_TrROS_Hall] | 2.33 ± 0.052 kcal/mol | 1.29 ± 0.079 kcal/mol | 2.09 ± 0.08 kcal/mol
25 | SAGGSAGGSAGGSMTLVIKNGIGYTVIKIKVEYDEETGEFSFELEIETKPVPPNYPVPASAGGSAGGSAGGS [r4_215_TrMRF] | 4.39 ± 0.33 kcal/mol | 3.02 ± 0.33 kcal/mol | 3.99 ± 0.59 kcal/mol
26 | SAGGSAGGSAGGSMTTLNLTNMSPEEIEAALKANPGPVTVTTTLPGGEITTKTYTVPPGSAGGSAGGSAGGS [r10_514_JUSTAS] | 0.644 ± 0.12 kcal/mol | -0.0189 ± 0.047 kcal/mol | 0.423 ± 0.083 kcal/mol
27 | SAGGSAGGSAGGSMVITMTEEEIKALLPPGAKVKVEVVEDEETKEKFVRVEVYPAKEEESAGGSAGGSAGGS [r4_119_TrROS_Hall] | -0.429 ± 0.15 kcal/mol | 0.0616 ± 0.059 kcal/mol | 0.0851 ± 0.21 kcal/mol
28 | SAGGSAGGSAGGSMVKILIEKENELYEIYVPKDEIPLDELVKKAKELFPDIVKIEVFDDSAGGSAGGSAGGS [r4_235_TrMRF] | 1.1 ± 0.03 kcal/mol | 0.802 ± 0.039 kcal/mol | 0.966 ± 0.096 kcal/mol
29 | SAGGSAGGSAGGSMVKISKEPDRLTITITPGNTPLVFESTEPISEEEFVEKAKKENPLISAGGSAGGSAGGS [r4_191_JUSTAS] | 1.03 ± 0.037 kcal/mol | 0.215 ± 0.13 kcal/mol | 0.657 ± 0.17 kcal/mol
30 | SAGGSAGGSAGGSMVSVEEFEVELPGGSKVKATVLIDPEGPLTVLLGDETFILPKEELGSAGGSAGGSAGGS [r10_649_JUSTAS] | -0.229 ± 0.19 kcal/mol | -0.22 ± 0.2 kcal/mol | -0.118 ± 0.13 kcal/mol
31 | SAGGSAGGSAGGSMVVEFSVGDTPIATIPFPGTEEEAKAAVEKLKEEYPSAEVKFTVHDESAGGSAGGSAGG [r7_81_JUSTAS] | 0.169 ± 0.075 kcal/mol | 0.471 ± 0.031 kcal/mol | 0.342 ± 0.14 kcal/mol
32 | SAGGSAGGSAGGSMYTAEPSVVLLPDGTLRTVTRYTFPDGSVTSETATSPLSPDDPALLSAGGSAGGSAGGS [r4_144_JUSTAS] | 0.949 ± 0.099 kcal/mol | -0.0533 ± 0.1 kcal/mol | 0.637 ± 0.087 kcal/mol
33 | SAGGSAGGSAGGSNIEIEYNPNMMTIRIEPGDKPIEIQIKSPMTMEEFIKTALDKFPGISAGGSAGGSAGGS [r4_191_TrROS] | 0.224 ± 0.18 kcal/mol | 0.394 ± 0.061 kcal/mol | 0.415 ± 0.28 kcal/mol
34 | SAGGSAGGSAGGSNMYIEIDEIERNPDDWYQITVKIYNPDNGEKEKITFYMPPGQEIKISAGGSAGGSAGGS [r4_133_TrROS] | 1.51 ± 0.12 kcal/mol | 0.896 ± 0.076 kcal/mol | 1.25 ± 0.2 kcal/mol
35 | SAGGSAGGSAGGSPAVRIPLEVLKELIPPDLVVEVNPVPVPEEGGVLVPVRVVSPEEAASAGGSAGGSAGGS [r4_119_TrMRF] | 1.13 ± 0.042 kcal/mol | 0.0931 ± 0.052 kcal/mol | 0.728 ± 0.18 kcal/mol
36 | SAGGSAGGSAGGSPFTIKIKMEQPNGRKRTYTIEGEGDLDQIAKELEKHYPGRIKDIEISAGGSAGGSAGGS [r4_412_TrROS] | 0.783 ± 0.23 kcal/mol | -0.101 ± 0.31 kcal/mol | 0.548 ± 0.27 kcal/mol
